In US12247244B2, “Membrane protein activity measurement method” (THE UNIVERSITY OF TOKYO, priority 2018, dated 2025):

Target: T1, human Flt3 (hFlt3) (Homo sapiens, UniProt P36888)
T1 construct: expressed in transfected cells; host or cells: NCP19 cells (HeLa-derived knock-in clone)
T1 sequence (P36888 27-993): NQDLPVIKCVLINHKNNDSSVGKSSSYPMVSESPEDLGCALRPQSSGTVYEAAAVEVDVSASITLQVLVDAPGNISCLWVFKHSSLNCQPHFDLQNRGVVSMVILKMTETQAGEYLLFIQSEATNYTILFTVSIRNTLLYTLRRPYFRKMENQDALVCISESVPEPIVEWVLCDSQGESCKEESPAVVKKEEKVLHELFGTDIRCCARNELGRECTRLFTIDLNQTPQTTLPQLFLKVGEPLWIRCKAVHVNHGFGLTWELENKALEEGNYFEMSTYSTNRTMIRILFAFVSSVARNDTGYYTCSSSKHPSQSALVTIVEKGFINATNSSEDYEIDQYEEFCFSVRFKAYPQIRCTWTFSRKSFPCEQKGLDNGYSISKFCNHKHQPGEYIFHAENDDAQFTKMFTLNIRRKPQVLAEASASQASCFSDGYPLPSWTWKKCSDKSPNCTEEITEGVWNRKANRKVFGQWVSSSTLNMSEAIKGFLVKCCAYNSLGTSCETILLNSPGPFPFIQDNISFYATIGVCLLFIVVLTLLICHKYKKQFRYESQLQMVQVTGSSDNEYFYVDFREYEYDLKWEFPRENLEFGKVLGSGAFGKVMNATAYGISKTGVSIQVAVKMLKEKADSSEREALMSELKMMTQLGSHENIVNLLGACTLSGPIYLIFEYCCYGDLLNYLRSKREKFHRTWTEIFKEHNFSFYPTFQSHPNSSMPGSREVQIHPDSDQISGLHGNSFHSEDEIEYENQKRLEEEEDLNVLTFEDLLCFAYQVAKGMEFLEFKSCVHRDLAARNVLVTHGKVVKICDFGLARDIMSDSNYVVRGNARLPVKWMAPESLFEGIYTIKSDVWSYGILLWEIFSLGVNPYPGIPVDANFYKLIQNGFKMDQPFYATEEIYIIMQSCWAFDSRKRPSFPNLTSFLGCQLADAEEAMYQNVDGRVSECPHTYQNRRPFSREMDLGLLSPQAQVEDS
Assay: NCP19 knock-in reporter cell assay (UAS-luciferase) for hFlt3 activation
Type: cell-based
Settings: NCP19 cells transfected with hFlt3; ligand 30, 3, 0.3, 0.03, 0 ng/ml; stimulation for 6 hours; FIG. 12
Experimental: • Used cells: NCP19 • Used plasmids: • (1) a plasmid that expresses hFlt3 (an hFlt3 expression plasmid); and • (2) UAS-luciferase. • Day 1: NCP19 cells were seeded on a 96-well plate at a density of 24000 cells/well. • Day 2: Within 24 hours after the seeding on the 96-well plate, 90 ng of DNA per well (a plasmid cocktail consisting of 60 ng of hFlt3+30 ng of UAS-luciferase) was transfected into the cells according to a lipofection method. • Day 3: Twenty-four hours after the transfection, the cells were stimulated by a ligand (Flt3-ligand: at concentrations of 30, 3, 0.3, 0.03, and 0 ng/ml). After the stimulation for 6 hours, a culture supernatant was discarded, and a substrate for luciferase was added, and then, luminescence signals were measured using a plate reader.

B1: Flt3-ligand: ligand used to stimulate the receptor tyrosine kinase hFlt3 (protein)
chain: TQDCSFQHSPISSDFAVKIRELSDYLLQDYPVTVASNLQDEELCGGLWRLVLAQRWMERLKTVAGSKMQGLLERVNTEIHFVTKCAFQPPPSCLRFVQTNISRLLQETSEQLVALKPWITRQNFSRCLELQCQPDSSTLPPPWSPRPLEATAPTA
- activation of hFlt3, luminescence of luciferase: detected as the luminescence of luciferase
